Assay results published in US20210139548A1 (published 2021).
Values belong to the binder of their own block, whether it stands above or below them. *1 amine or outer side, *2 acyl side, *3 side chain or, on linkers, in order; H or OH if unused. Side-chain parts run from the residue outwards. The star is where a group is joined. C18 diacid = O=C(O)CCCCCCCCCCCCCCCCC(=O)*; γGlu = O=C(O)[C@H](CCC(=O)[*:2])N[*:1]; Isovaleryl = CC(C)CC(=O)*; AEEA = NCCOCCOCC(=O)O

Biological target: T1, human neuropeptide Y2 receptor (human, UniProt P49146 1-381)
T1 construct: whole, on cells; also called hNPY2 receptor; hNPY2-R
T1 sequence (looked up): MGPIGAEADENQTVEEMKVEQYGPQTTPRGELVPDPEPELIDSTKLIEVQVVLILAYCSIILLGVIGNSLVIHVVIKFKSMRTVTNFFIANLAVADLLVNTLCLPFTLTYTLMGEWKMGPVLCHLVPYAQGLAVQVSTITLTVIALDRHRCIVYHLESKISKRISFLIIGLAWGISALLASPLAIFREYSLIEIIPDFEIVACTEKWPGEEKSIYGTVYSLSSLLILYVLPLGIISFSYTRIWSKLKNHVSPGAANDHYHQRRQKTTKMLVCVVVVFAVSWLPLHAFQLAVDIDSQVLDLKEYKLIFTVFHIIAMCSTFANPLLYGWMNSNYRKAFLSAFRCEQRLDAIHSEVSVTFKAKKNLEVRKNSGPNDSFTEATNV
Assay: radioligand competition (125I-PYY(1-36)), hNPY2R membranes
In short: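 Commercial human Y2 receptor membranes (0.5 μg protein/well) were incubated with peptide for 2 h at room temperature in 50 mM HEPES, 5 mM MgCl₂, 1 mM CaCl₂, pH 7.4, with 0.2% ovalbumin. Bound radioligand was separated on PEI-soaked GF/C filters and counted by scintillation, and IC₅₀ came from nonlinear sigmoidal regression.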

B1: Compound 185 (peptide)
peptide: Isovaleryl-APEK([AEEA-AEEA-γGlu-C18 diacid])PEEEASPEELQRYYVELRHYYNWLTRQRY-NH2
SMILES: CC(C)CC(=O)N[C@@H](C)C(=O)N1CCC[C@H]1C(=O)N[C@@H](CCC(=O)O)C(=O)N[C@@H](CCCCNC(=O)COCCOCCNC(=O)COCCOCCNC(=O)CC[C@H](NC(=O)CCCCCCCCCCCCCCCCC(=O)O)C(=O)O)C(=O)N1CCC[C@H]1C(=O)N[C@@H](CCC(=O)O)C(=O)N[C@@H](CCC(=O)O)C(=O)N[C@@H](CCC(=O)O)C(=O)N[C@@H](C)C(=O)N[C@@H](CO)C(=O)N1CCC[C@H]1C(=O)N[C@@H](CCC(=O)O)C(=O)N[C@@H](CCC(=O)O)C(=O)N[C@@H](CC(C)C)C(=O)N[C@@H](CCC(N)=O)C(=O)N[C@@H](CCCNC(=N)N)C(=O)N[C@@H](Cc1ccc(O)cc1)C(=O)N[C@@H](Cc1ccc(O)cc1)C(=O)N[C@H](C(=O)N[C@@H](CCC(=O)O)C(=O)N[C@@H](CC(C)C)C(=O)N[C@@H](CCCNC(=N)N)C(=O)N[C@@H](Cc1c[nH]cn1)C(=O)N[C@@H](Cc1ccc(O)cc1)C(=O)N[C@@H](Cc1ccc(O)cc1)C(=O)N[C@@H](CC(N)=O)C(=O)N[C@@H](Cc1c[nH]c2ccccc12)C(=O)N[C@@H](CC(C)C)C(=O)N[C@H](C(=O)N[C@@H](CCCNC(=N)N)C(=O)N[C@@H](CCC(N)=O)C(=O)N[C@@H](CCCNC(=N)N)C(=O)N[C@@H](Cc1ccc(O)cc1)C(N)=O)[C@@H](C)O)C(C)C
- Ki: 3.58 nM

B2: Compound 187 (peptide)
peptide: Isovaleryl-APEK([AEEA-AEEA-γGlu-C18 diacid])PEEDASPEELQRYYVSLRHQYNWLTRQRY-NH2
SMILES: CC(C)CC(=O)N[C@@H](C)C(=O)N1CCC[C@H]1C(=O)N[C@@H](CCC(=O)O)C(=O)N[C@@H](CCCCNC(=O)COCCOCCNC(=O)COCCOCCNC(=O)CC[C@H](NC(=O)CCCCCCCCCCCCCCCCC(=O)O)C(=O)O)C(=O)N1CCC[C@H]1C(=O)N[C@@H](CCC(=O)O)C(=O)N[C@@H](CCC(=O)O)C(=O)N[C@@H](CC(=O)O)C(=O)N[C@@H](C)C(=O)N[C@@H](CO)C(=O)N1CCC[C@H]1C(=O)N[C@@H](CCC(=O)O)C(=O)N[C@@H](CCC(=O)O)C(=O)N[C@@H](CC(C)C)C(=O)N[C@@H](CCC(N)=O)C(=O)N[C@@H](CCCNC(=N)N)C(=O)N[C@@H](Cc1ccc(O)cc1)C(=O)N[C@@H](Cc1ccc(O)cc1)C(=O)N[C@H](C(=O)N[C@@H](CO)C(=O)N[C@@H](CC(C)C)C(=O)N[C@@H](CCCNC(=N)N)C(=O)N[C@@H](Cc1c[nH]cn1)C(=O)N[C@@H](CCC(N)=O)C(=O)N[C@@H](Cc1ccc(O)cc1)C(=O)N[C@@H](CC(N)=O)C(=O)N[C@@H](Cc1c[nH]c2ccccc12)C(=O)N[C@@H](CC(C)C)C(=O)N[C@H](C(=O)N[C@@H](CCCNC(=N)N)C(=O)N[C@@H](CCC(N)=O)C(=O)N[C@@H](CCCNC(=N)N)C(=O)N[C@@H](Cc1ccc(O)cc1)C(N)=O)[C@@H](C)O)C(C)C
- Ki: 2.76 nM

More lines, now with the values ahead:

- Ki: 1.7 nM
B3: Compound 191 (peptide)
peptide: Isovaleryl-APEK([AEEA-AEEA-γGlu-C18 diacid])PEEDASPEELQRYYISLRHYYNWLTRQRY-NH2
SMILES: CC[C@H](C)[C@H](NC(=O)[C@H](Cc1ccc(O)cc1)NC(=O)[C@H](Cc1ccc(O)cc1)NC(=O)[C@H](CCCNC(=N)N)NC(=O)[C@H](CCC(N)=O)NC(=O)[C@H](CC(C)C)NC(=O)[C@H](CCC(=O)O)NC(=O)[C@H](CCC(=O)O)NC(=O)[C@@H]1CCCN1C(=O)[C@H](CO)NC(=O)[C@H](C)NC(=O)[C@H](CC(=O)O)NC(=O)[C@H](CCC(=O)O)NC(=O)[C@H](CCC(=O)O)NC(=O)[C@@H]1CCCN1C(=O)[C@H](CCCCNC(=O)COCCOCCNC(=O)COCCOCCNC(=O)CC[C@H](NC(=O)CCCCCCCCCCCCCCCCC(=O)O)C(=O)O)NC(=O)[C@H](CCC(=O)O)NC(=O)[C@@H]1CCCN1C(=O)[C@H](C)NC(=O)CC(C)C)C(=O)N[C@@H](CO)C(=O)N[C@@H](CC(C)C)C(=O)N[C@@H](CCCNC(=N)N)C(=O)N[C@@H](Cc1c[nH]cn1)C(=O)N[C@@H](Cc1ccc(O)cc1)C(=O)N[C@@H](Cc1ccc(O)cc1)C(=O)N[C@@H](CC(N)=O)C(=O)N[C@@H](Cc1c[nH]c2ccccc12)C(=O)N[C@@H](CC(C)C)C(=O)N[C@H](C(=O)N[C@@H](CCCNC(=N)N)C(=O)N[C@@H](CCC(N)=O)C(=O)N[C@@H](CCCNC(=N)N)C(=O)N[C@@H](Cc1ccc(O)cc1)C(N)=O)[C@@H](C)O

- Ki: 2.08 nM
B4: Compound 189 (peptide)
peptide: Isovaleryl-APEK([AEEA-AEEA-γGlu-C18 diacid])PEEDASEAELQRYYVSLRHYYNWLTRQRY-NH2
SMILES: CC(C)CC(=O)N[C@@H](C)C(=O)N1CCC[C@H]1C(=O)N[C@@H](CCC(=O)O)C(=O)N[C@@H](CCCCNC(=O)COCCOCCNC(=O)COCCOCCNC(=O)CC[C@H](NC(=O)CCCCCCCCCCCCCCCCC(=O)O)C(=O)O)C(=O)N1CCC[C@H]1C(=O)N[C@@H](CCC(=O)O)C(=O)N[C@@H](CCC(=O)O)C(=O)N[C@@H](CC(=O)O)C(=O)N[C@@H](C)C(=O)N[C@@H](CO)C(=O)N[C@@H](CCC(=O)O)C(=O)N[C@@H](C)C(=O)N[C@@H](CCC(=O)O)C(=O)N[C@@H](CC(C)C)C(=O)N[C@@H](CCC(N)=O)C(=O)N[C@@H](CCCNC(=N)N)C(=O)N[C@@H](Cc1ccc(O)cc1)C(=O)N[C@@H](Cc1ccc(O)cc1)C(=O)N[C@H](C(=O)N[C@@H](CO)C(=O)N[C@@H](CC(C)C)C(=O)N[C@@H](CCCNC(=N)N)C(=O)N[C@@H](Cc1c[nH]cn1)C(=O)N[C@@H](Cc1ccc(O)cc1)C(=O)N[C@@H](Cc1ccc(O)cc1)C(=O)N[C@@H](CC(N)=O)C(=O)N[C@@H](Cc1c[nH]c2ccccc12)C(=O)N[C@@H](CC(C)C)C(=O)N[C@H](C(=O)N[C@@H](CCCNC(=N)N)C(=O)N[C@@H](CCC(N)=O)C(=O)N[C@@H](CCCNC(=N)N)C(=O)N[C@@H](Cc1ccc(O)cc1)C(N)=O)[C@@H](C)O)C(C)C

- Ki: 1.65 nM
B5: Compound 192 (peptide)
peptide: Isovaleryl-APEK([AEEA-AEEA-γGlu-C18 diacid])PEEDAAPAELQRYYVSLRHYYNWLTRQRY-NH2
SMILES: CC(C)CC(=O)N[C@@H](C)C(=O)N1CCC[C@H]1C(=O)N[C@@H](CCC(=O)O)C(=O)N[C@@H](CCCCNC(=O)COCCOCCNC(=O)COCCOCCNC(=O)CC[C@H](NC(=O)CCCCCCCCCCCCCCCCC(=O)O)C(=O)O)C(=O)N1CCC[C@H]1C(=O)N[C@@H](CCC(=O)O)C(=O)N[C@@H](CCC(=O)O)C(=O)N[C@@H](CC(=O)O)C(=O)N[C@@H](C)C(=O)N[C@@H](C)C(=O)N1CCC[C@H]1C(=O)N[C@@H](C)C(=O)N[C@@H](CCC(=O)O)C(=O)N[C@@H](CC(C)C)C(=O)N[C@@H](CCC(N)=O)C(=O)N[C@@H](CCCNC(=N)N)C(=O)N[C@@H](Cc1ccc(O)cc1)C(=O)N[C@@H](Cc1ccc(O)cc1)C(=O)N[C@H](C(=O)N[C@@H](CO)C(=O)N[C@@H](CC(C)C)C(=O)N[C@@H](CCCNC(=N)N)C(=O)N[C@@H](Cc1c[nH]cn1)C(=O)N[C@@H](Cc1ccc(O)cc1)C(=O)N[C@@H](Cc1ccc(O)cc1)C(=O)N[C@@H](CC(N)=O)C(=O)N[C@@H](Cc1c[nH]c2ccccc12)C(=O)N[C@@H](CC(C)C)C(=O)N[C@H](C(=O)N[C@@H](CCCNC(=N)N)C(=O)N[C@@H](CCC(N)=O)C(=O)N[C@@H](CCCNC(=N)N)C(=O)N[C@@H](Cc1ccc(O)cc1)C(N)=O)[C@@H](C)O)C(C)C
